In publication PMC11039987:
Where two headings read alike, the source gives them in different places.

Columns and labels:
Test in all cases: fluorescence anisotropy
[1] = biological target: T1, RecBCD (prokaryote (species  in the …, UniProt P08394;P07648;P04993 1-1180;1-1122;1-608))
[2] = biological target: T1, RecBCD; remark: listed apart in the source
[3] = biological target: T1, RecBCD; remark: listed apart in the source

T1 sequence (P08394 whole entry, chain 1 of 3): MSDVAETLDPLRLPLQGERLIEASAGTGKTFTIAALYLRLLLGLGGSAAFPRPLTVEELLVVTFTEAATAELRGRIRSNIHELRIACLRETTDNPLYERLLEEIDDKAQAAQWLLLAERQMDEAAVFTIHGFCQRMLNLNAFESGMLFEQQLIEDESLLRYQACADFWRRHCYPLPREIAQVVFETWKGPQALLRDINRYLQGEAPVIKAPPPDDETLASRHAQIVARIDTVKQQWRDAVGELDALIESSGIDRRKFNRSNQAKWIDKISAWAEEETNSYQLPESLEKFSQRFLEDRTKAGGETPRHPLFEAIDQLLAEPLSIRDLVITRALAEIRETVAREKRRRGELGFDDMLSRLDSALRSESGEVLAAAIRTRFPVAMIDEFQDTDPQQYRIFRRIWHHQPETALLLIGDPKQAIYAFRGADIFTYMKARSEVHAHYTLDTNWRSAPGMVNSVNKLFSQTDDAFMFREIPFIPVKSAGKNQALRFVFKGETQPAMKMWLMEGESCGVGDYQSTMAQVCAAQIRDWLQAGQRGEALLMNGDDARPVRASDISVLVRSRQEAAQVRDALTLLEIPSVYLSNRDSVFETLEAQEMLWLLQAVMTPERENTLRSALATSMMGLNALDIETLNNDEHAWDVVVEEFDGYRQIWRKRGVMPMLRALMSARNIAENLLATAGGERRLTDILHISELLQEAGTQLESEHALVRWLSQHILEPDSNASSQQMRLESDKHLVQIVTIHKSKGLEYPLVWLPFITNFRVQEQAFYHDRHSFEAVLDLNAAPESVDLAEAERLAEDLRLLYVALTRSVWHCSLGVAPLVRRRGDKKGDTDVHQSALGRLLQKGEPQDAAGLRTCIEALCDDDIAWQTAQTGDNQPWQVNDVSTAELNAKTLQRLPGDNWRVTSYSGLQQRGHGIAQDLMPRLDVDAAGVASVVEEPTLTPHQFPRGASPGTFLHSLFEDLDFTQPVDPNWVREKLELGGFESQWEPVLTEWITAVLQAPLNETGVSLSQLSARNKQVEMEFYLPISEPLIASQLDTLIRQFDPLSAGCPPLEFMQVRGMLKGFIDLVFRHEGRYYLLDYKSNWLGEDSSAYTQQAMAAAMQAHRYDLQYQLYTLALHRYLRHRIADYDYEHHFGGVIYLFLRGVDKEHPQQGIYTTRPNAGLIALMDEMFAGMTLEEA
T1 sequence (P07648 whole entry, chain 2 of 3): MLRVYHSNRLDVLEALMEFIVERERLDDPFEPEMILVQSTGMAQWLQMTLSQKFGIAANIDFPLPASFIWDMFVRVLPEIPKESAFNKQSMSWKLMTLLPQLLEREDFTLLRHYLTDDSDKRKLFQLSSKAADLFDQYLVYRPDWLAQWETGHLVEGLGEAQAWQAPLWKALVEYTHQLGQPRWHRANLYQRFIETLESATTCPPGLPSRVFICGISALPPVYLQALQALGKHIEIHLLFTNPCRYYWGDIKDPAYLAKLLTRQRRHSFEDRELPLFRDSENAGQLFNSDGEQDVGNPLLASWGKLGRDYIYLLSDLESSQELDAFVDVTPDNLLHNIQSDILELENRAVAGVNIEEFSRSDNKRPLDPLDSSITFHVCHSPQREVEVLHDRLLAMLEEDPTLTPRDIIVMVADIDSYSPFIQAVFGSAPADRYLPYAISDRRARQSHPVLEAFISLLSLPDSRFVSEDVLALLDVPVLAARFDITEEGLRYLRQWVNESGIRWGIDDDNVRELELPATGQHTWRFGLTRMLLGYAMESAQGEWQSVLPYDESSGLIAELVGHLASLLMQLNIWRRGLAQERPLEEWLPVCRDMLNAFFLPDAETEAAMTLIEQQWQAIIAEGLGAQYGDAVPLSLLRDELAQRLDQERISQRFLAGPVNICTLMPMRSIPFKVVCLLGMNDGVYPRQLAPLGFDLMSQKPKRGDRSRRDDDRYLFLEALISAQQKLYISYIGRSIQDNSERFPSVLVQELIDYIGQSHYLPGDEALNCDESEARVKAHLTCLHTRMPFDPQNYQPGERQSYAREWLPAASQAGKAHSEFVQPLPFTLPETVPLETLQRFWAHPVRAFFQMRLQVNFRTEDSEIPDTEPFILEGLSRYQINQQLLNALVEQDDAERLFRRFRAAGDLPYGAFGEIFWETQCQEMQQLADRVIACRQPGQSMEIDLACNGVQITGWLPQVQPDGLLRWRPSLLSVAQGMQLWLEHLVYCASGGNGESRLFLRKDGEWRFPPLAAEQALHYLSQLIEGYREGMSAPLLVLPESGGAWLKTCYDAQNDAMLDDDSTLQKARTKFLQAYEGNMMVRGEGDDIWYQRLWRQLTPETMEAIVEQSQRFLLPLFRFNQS
T1 sequence (P04993 whole entry, chain 3 of 3): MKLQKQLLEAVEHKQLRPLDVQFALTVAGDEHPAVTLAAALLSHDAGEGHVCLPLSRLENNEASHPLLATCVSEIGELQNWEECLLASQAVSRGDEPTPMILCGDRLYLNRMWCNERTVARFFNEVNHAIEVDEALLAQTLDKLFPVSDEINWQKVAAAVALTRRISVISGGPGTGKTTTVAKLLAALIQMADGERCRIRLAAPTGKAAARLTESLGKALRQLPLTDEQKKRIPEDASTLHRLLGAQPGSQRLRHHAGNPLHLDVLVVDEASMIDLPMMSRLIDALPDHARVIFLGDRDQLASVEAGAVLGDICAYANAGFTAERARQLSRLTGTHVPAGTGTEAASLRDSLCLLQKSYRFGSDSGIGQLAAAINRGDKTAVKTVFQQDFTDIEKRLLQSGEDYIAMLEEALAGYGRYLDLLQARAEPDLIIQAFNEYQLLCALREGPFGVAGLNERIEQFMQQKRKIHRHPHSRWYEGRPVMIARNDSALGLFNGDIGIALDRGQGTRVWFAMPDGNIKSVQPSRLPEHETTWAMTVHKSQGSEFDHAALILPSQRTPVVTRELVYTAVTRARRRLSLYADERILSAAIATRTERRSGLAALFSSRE

B1: ssDNA-F (ssDNA)
DNA: AGAGAGAGAGAGAGAGAGAGAGAG
- binding result [1]: binds

B2: hpDNA-F (structured_DNA)
DNA: GATGTGACTCGTTACCTGAGTTTTTACTCAGGTAACGAGTCACATC
- binding result [2]: binds

B3: 3ohDNA-F (structured_DNA)
DNA: CATGTGACTCGTTACCTGAGTTTTTACTCAGGTAACGAGTCACATGATATATATAT
- Kd [3]: 166 ± 41 nM
